Values belong to the binder of their own block, whether it stands above or below them.
Key:
[1] = target: T1, rHuman HGF R/c-MET/Fc Chimera, CF (Cat# 358-MT/CF) (human, UniProt P08581 25-932); assay: Multispot ECL; Fab 280 nM
T1 construct: Bought from R&D Systems; also called HGF R/Fc; hepatocyte growth factor receptor (HGF R/c-Met)
Protocol: (§1) An 150 μl aliquot of 1% Bovine Serum Albumin (BSA) in Tris-buffered Saline Tween (TBST) was added to each well and allowed to incubate for 30 min at 20° C. followed by washing and tap drying to completely remove any residual solution. Subsequently, a 12.5 μl aliquot of 1% BSA TBST was added to each well followed by the addition of a 12.5 μl aliquot of a purified Fab. The plate was sealed and incubated for 1 hour at 20° C. with shaking.
(§2) Detection antibodies were prepared by individually conjugating both goat anti-human Kappa light chain polyclonal antibody (K3502-1MG, Sigma-Aldrich) and goat anti-human Lambda light chain polyclonal antibody (L1645-1 mL, Sigma-Aldrich) with Ruthenium (II) tris-bipyridine-(4-methylsulfone)-N-hydroxysuccinimide (SULFO-TAG NHS-ester, Meso Scale Discovery) according to the manufacturer's instructions. TAG-detection antibody at 25 μl was added to each well and allowed to incubate for 1 hour at 20° C. with shaking. Finally, 15 μl of Read Buffer P with Surfactant (Cat # R92PC-1, Meso Scale Discovery) was added to each well. The electrochemiluminescence was measured using a Sector Imager 2400 (Meso Scale Discovery). Data was analyzed by comparing the ECL signals for an antigen to the blank of each well. A signal to blank ratio of 4 or more was considered a “Hit” Fab. […]

[2] = target: T2, Recombinant Human DLL4 (Cat# 1506-D4/CF) (human, UniProt Q9NR61 27-529); assay: Multispot ECL; Fab 280 nM
T2 construct: Bought from R&D Systems; also called rHuman DLL4; hDLL4
Protocol: as §1, §2

[3] = target: T1, rHuman HGF R/c-MET/Fc Chimera, CF (Cat# …); assay: Multispot ECL; Fab 17.5 nM
Protocol: as §1, §2

[4] = target: T2, Recombinant Human DLL4 (Cat# 1506-D4/CF); assay: Multispot ECL; Fab 17.5 nM
Protocol: as §1, §2

[5] = target: T1, rHuman HGF R/c-MET/Fc Chimera, CF (Cat# …); assay: Multispot ECL; Fab 70 nM
Protocol: as §1, §2

[6] = target: T2, Recombinant Human DLL4 (Cat# 1506-D4/CF); assay: Multispot ECL; Fab 70 nM
Protocol: as §1, §2

[7] = target: T1, rHuman HGF R/c-MET/Fc Chimera, CF (Cat# …); assay: Multispot ECL; Fab 4.375 nM
Protocol: as §1, §2

[8] = target: T2, Recombinant Human DLL4 (Cat# 1506-D4/CF); assay: Multispot ECL; Fab 4.375 nM
Protocol: as §1, §2

[9] = target: T2, Recombinant Human DLL4 (Cat# 1506-D4/CF); assay: Multispot ECL; Fab 230 nM
Protocol: as §1
(§3) Detection antibodies were prepared by individually conjugating both goat anti-human Kappa light chain polyclonal antibody (K3502-1MG, Sigma-Aldrich) and goat anti-human Lambda light chain polyclonal antibody (L1645-1 mL, Sigma-Aldrich) with Ruthenium (II) tris-bipyridine-(4-methylsulfone)-N-hydroxysuccinimide (SULFO-TAG NHS-ester, Meso Scale Discovery) according to the manufacturer's instructions. TAG-detection antibody at 25 μl was added to each well and allowed to incubate for 1 hour at 20° C. with shaking. Finally, 15 μl of Read Buffer P with Surfactant (Cat # R92PC-1, Meso Scale Discovery) was added to each well. The electrochemiluminescence was measured using a Sector Imager 2400 (Meso Scale Discovery). Data was analyzed by comparing the ECL signals for an antigen to the blank of each well. A signal to blank ratio of 4 or more was considered a “Hit” Fab.
(§4) To confirm a “Hit” from the initial Multispot ECL screening, a Fab concentration dependent titration was carried out to determine the Fab-antigen binding affinity.

[10] = target: T3, rHuman Erythropoietin R/Fc Chimera, CF (Cat# 963-ER) (human, UniProt P19235 25-250); assay: Multispot ECL; Fab 230 nM
T3 construct: Bought from R&D Systems; also called EPO R/Fc; Epo R/Fc chimera
T3 sequence (looked up): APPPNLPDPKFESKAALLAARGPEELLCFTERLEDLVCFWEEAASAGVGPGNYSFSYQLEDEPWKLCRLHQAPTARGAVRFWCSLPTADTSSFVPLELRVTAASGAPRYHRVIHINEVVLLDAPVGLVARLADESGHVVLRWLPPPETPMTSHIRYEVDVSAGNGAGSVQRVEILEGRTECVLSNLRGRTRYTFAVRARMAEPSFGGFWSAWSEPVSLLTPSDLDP
Protocol: as §1, §3, §4

[11] = target: T4, rHuman IGF-1 sR, (IGF-1 sR), CF (Cat# 391-GR) (human, UniProt P08069 31-932); assay: Multispot ECL; Fab 230 nM
T4 construct: Bought from R&D Systems; also called insulin-like growth factor-1 soluble receptor
Protocol: as §1, §3, §4

[12] = target: T5, rHuman Notch-1/Fc Chimera, CF (Cat# 3647-TK) (human, UniProt P46531 19-526); assay: Multispot ECL; Fab 230 nM
T5 construct: Bought from R&D Systems
Protocol: as §1, §3, §4

[13] = target: T2, Recombinant Human DLL4 (Cat# 1506-D4/CF); assay: Multispot ECL; Fab 14.375 nM
Protocol: as §1, §3, §4

[14] = target: T3, rHuman Erythropoietin R/Fc Chimera, CF …; assay: Multispot ECL; Fab 14.375 nM
Protocol: as §1, §3, §4

[15] = target: T4, rHuman IGF-1 sR, (IGF-1 sR), CF (Cat# …); assay: Multispot ECL; Fab 14.375 nM
Protocol: as §1, §3, §4

[16] = target: T5, rHuman Notch-1/Fc Chimera, CF (Cat# …); assay: Multispot ECL; Fab 14.375 nM
Protocol: as §1, §3, §4

[17] = target: T2, Recombinant Human DLL4 (Cat# 1506-D4/CF); assay: Multispot ECL; Fab 57.5 nM
Protocol: as §1, §3, §4

[18] = target: T3, rHuman Erythropoietin R/Fc Chimera, CF …; assay: Multispot ECL; Fab 57.5 nM
Protocol: as §1, §3, §4

[19] = target: T4, rHuman IGF-1 sR, (IGF-1 sR), CF (Cat# …); assay: Multispot ECL; Fab 57.5 nM
Protocol: as §1, §3, §4

[20] = target: T5, rHuman Notch-1/Fc Chimera, CF (Cat# …); assay: Multispot ECL; Fab 57.5 nM
Protocol: as §1, §3, §4

[21] = target: T2, Recombinant Human DLL4 (Cat# 1506-D4/CF); assay: Multispot ECL; Fab 920 nM
Protocol: as §1, §3, §4

[22] = target: T3, rHuman Erythropoietin R/Fc Chimera, CF …; assay: Multispot ECL; Fab 920 nM
Protocol: as §1, §3, §4

[23] = target: T4, rHuman IGF-1 sR, (IGF-1 sR), CF (Cat# …); assay: Multispot ECL; Fab 920 nM
Protocol: as §1, §3, §4

[24] = target: T5, rHuman Notch-1/Fc Chimera, CF (Cat# …); assay: Multispot ECL; Fab 920 nM
Protocol: as §1, §3, §4

[25] = target: T6, Recombinant Human DLL4 (Cat# 1506-D4/CF, R&D Systems) (human, UniProt Q9NR61 27-529); assay: ELISA, DLL4 coated
T6 construct: Bought protein; also called rHuman DLL4; hDLL4

[26] = target: T6, Recombinant Human DLL4 (Cat# …); assay: ELISA, hDLL4 coated, estimated from dose-dependent binding
[27] = target: T7, recombinant mouse DLL4 (Cat# 1389-D4-050/CF, R&D Systems) (mouse, UniProt Q9JI71 28-525); assay: ELISA, mDLL4 or hDLL4 coated
T7 construct: also called mDLL4

[28] = target: T6, Recombinant Human DLL4 (Cat# …); assay: SPR, DLL4 immobilised
Protocol: In this example, the binding affinities of selected anti-DLL4 Fabs to recombinant human DLL4 (hDLL4, Cat# 1506-D4/CF, R&D Systems) were analyzed using Surface Plasmon Resonance (SPR) (Biosensor Tools, Salt Lake City, Utah). The Fabs analyzed include germline-derived antibodies and germline-modified DLL4 antibodies. Recombinant hDLL4 was immobilized on a SPR chip using amine coupling at three different surface densities. The Fabs were serially diluted 3-fold, with an initial concentration of 1 μM. Binding studies were run on a ProteOn system using a GLM sensor chip in 10 mM HEPES, pH 7.4, 150 mM NaCl, 0.01% Tween-20, and 0.1 mg/ml BSA at 25° C. The response data from each surface was globally fit to determine the binding constants.

[29] = target: T8, DLL4 Egf1 (amino acid: 1-251) construct (human, UniProt Q9NR61 26-251); assay: Western blot, non-reducing
T8 construct: also called EGF1 construct; not shown: myc tag (and his tag) added by the PCR primers
Protocol: (§5) Media from transfected CHO cells was collected after 7 days. To enrich for the DLL4 protein, 1 ml aliquots of each sample were batch bound with 50 μl of Talon Resin for 30 minutes. To confirm protein production media samples were tested with mouse anti-c-myc mAb (Genescript; Catalog # A00704). Samples were washed and then boiled with loading dye in the presence or absence of DTT. A gel was run on each of the 2 samples for each condition: with DTT and without DTT. […] For detection goat anti-mouse HRP, goat anti-kappa HRP, and goat anti-lambda HRP were used, respectively.

[30] = target: T9, DLL4 DSL (amino acid: 1-217) construct (human, UniProt Q9NR61 26-217); assay: Western blot, non-reducing
T9 construct: also called DSL construct; not shown: myc tag (and his tag) added by the PCR primers
Protocol: as §5

[31] = target: T6, Recombinant Human DLL4 (Cat# …); assay: ECL competition, DLL4 coated; competitor 100 nM Ru-labeled Fab H:APF & L:wt
Protocol: Briefly, single spot 96-well standard plates (MSD) were coated overnight with 5 μl per well of 10 μg/ml DLL4 (R&D systems) in PBS with 0.03% Triton X-100. Some wells were left uncoated as blank. The next day, an 150 μl aliquot of 3% BSA in TBST was added to each well and allowed to incubate for 60 min at 20° C. to block the plate. […] After incubating the plate at 20° C. with shaking for 1 hour, the ECL signal was measured using a Sector Imager 2400.

T7 sequence (Q9JI71 28-525 limits assumed): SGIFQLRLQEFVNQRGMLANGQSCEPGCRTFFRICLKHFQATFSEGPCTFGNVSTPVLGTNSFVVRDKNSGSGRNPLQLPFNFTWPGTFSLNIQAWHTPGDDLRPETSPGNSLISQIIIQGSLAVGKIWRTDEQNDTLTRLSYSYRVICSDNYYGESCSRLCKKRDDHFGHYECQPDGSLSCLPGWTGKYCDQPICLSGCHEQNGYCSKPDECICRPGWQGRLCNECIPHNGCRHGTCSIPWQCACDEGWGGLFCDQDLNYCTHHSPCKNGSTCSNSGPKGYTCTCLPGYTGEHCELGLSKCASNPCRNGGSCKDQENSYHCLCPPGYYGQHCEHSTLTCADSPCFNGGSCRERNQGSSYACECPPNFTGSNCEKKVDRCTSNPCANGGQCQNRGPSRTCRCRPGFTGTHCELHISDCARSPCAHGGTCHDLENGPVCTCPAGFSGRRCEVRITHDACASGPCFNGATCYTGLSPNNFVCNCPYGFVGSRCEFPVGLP

fold increased binding affinity against the antibody mutants with heavy chain H:APFF ALTH [25]: ~10 fold
Kd [26]: ~1 nM
fold decrease in affinity for mDLL4 against hDLL4 [27]: 10 fold
fold greater affinity for hDLL4 than for mouse DLL4 [28]: 5 fold
binding result [29]: no binding (tested: 20 nM Fab)
binding result [30]: no binding (tested: 20 nM Fab)
B3: Fab VH1-46_IGHD6-6*01_IGHJ1*01 H:APFF VLTH & L6_IGKJ1*01 L:NDH LS (Fab, V domains shown)
VH: QVQLVQSGAEVKKPGASVKVSCKASGYTFTSYYMHWVRQAPGQGLEWMGIVLPTGHSTSYAQKFQGRVTMTRDTSTSTVYMELSSLRSEDTAVYYCAREEYAPFSAEYFQFWGQGTLVTVSS
VL: EIVLTQSPATLSLSPGERATLSCRASQNVDHYLAWYQQKPGQAPRLLIYDALNRSTGIPARFSGSGSGTDFTLTISSLEPEDFAVYYCQQRSNWPPWTFGQGTKVEIKR
notes: all other places give 370; also called Fab H:APFF VLTH & L:NDH LS; anti-DLL4 Fab H:APFF VLTH & L:NDH LS

Kd [31]: ~30 nM
B4: Fab VH1-46_IGHD6-6*01_IGHJ1*01 H:APFF G56H & L6_IGKJ1*01 (Fab, V domains shown)
VH: QVQLVQSGAEVKKPGASVKVSCKASGYTFTSYYMHWVRQAPGQGLEWMGIINPSGHSTSYAQKFQGRVTMTRDTSTSTVYMELSSLRSEDTAVYYCAREEYAPFSAEYFQFWGQGTLVTVSS
VL: not shown
notes: Fab, kappa light chain; also called H:APFF G56H & L:wt

More lines, now with the values behind:

B1: Fab VH1-46_IGHD2-15*01_IGHJ2*01 & L12_IGKJ1*01 (Fab, V domains shown)
VH: QVQLVQSGAEVKKPGASVKVSCKASGYTFTSYYMHWVRQAPGQGLEWMGIINPSGGSTSYAQKFQGRVTMTRDTSTSTVYMELSSLRSEDTAVYYCAREGYCSGGSCYSYWYFDLWGRGTLVTVSS
VL: not shown
notes: Germline-derived Fab from E. coli: VH in Plasmid A (CH1, His6 and Flag tags), VL in Plasmid C (kappa CL)
ECL signal [1]: 3560
ECL signal [2]: 8110
ECL signal [3]: 565
ECL signal [4]: 1220
ECL signal [5]: 1290
ECL signal [6]: 2750
ECL signal [7]: 193
ECL signal [8]: 558

B2: Fab VH1-46_IGHD3-10*01_IGHJ4*01 & L12_IGKJ1*01 (Fab, V domains shown)
VH: QVQLVQSGAEVKKPGASVKVSCKASGYTFTSYYMHWVRQAPGQGLEWMGIINPSGGSTSYAQKFQGRVTMTRDTSTSTVYMELSSLRSEDTAVYYCAREYYYGSGSYYNDYFDYWGQGTLVTVSS
VL: not shown
notes: as for B1
ECL signal [9]: 119000
ECL signal [10]: 6950
ECL signal [11]: 4760
ECL signal [12]: 9740
ECL signal [13]: 125000
ECL signal [14]: 2720
ECL signal [15]: 1750
ECL signal [16]: 4210
ECL signal [17]: 144000
ECL signal [18]: 4040
ECL signal [19]: 2830
ECL signal [20]: 5890
ECL signal [21]: 73600
ECL signal [22]: 16400
ECL signal [23]: 10200
ECL signal [24]: 20100

From patent US20110318339A1 (FABRUS, published 2011)
